The values that follow come from patent US20230303685A1 (ELECTRA THERAPEUTICS, published 2023).

Test [1] concerns the target T1, Human SIRPγ CHO.
T1 construct: also called human SIRPγ on CHO cells
T1 chain: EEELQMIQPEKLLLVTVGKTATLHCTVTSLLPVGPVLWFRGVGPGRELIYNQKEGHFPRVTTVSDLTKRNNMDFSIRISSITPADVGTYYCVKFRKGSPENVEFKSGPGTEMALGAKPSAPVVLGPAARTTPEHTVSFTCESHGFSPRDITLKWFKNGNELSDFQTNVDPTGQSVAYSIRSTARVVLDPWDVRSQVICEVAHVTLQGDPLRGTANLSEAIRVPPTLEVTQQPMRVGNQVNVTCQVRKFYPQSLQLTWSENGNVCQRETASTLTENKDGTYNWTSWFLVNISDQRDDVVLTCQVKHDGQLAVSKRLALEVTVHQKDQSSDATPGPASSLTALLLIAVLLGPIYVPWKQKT
Kind of test: flow cytometry, stably transfected CHO cells, antibody titrated, labelled anti-rat or anti-mouse IgG, MFI. As to the method: (§1) Selected antibodies were tested for binding to stably transfected human SIRPα, SIRPβ1 (co-transfected with DAP12), or SIRPγ Chinese hamster ovary (CHO) cells via flow cytometry. A titration of SIRP antibodies was added to the cells and detected using a fluorescently labelled secondary antibody. Graph depicts the median fluorescence intensity (MFI) at each concentration.

The target in a further test is T2, Human SIRPβ1/DAP12 CHO.
T2 construct: also called human SIRPβ1 on CHO cells co-transfected with DAP12; copies: 1 + 2
T2 sequence (DAP12, as listed by the source limits assumed): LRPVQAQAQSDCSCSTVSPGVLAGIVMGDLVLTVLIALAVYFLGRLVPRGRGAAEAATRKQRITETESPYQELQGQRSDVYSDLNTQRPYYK
Described as above. The method, then:
as §1

Test [2] concerns the target T3, Human SIRPγ.
T3 construct: also called human SIRPγ extracellular domain, plate-coated
T3 chain: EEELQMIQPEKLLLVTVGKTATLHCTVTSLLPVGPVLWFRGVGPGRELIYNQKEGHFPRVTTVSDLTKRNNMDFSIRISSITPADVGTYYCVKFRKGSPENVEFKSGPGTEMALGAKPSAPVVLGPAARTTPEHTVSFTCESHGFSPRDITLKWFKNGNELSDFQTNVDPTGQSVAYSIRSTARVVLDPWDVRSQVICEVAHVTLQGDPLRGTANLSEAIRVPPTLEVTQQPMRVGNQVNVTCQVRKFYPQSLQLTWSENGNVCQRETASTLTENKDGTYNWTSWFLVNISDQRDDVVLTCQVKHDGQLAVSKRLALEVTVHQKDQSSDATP
Kind of test: ELISA, extracellular domain coated at 2 µg/mL, purified antibody titrated, anti-rat or anti-mouse IgG, chemiluminescence. The method, then:
(§2) Select SIRP antibodies were purified by Protein G from hybridoma supernatants and analyzed in a titration via ELISA. Briefly, 2 μg/mL of extracellular domain of each of the SIRPs was coated onto high protein-binding plates and blocked. Purified antibodies were added in a titration to the coated plates. The antibodies were detected by an anti-rat IgG or an anti-mouse IgG antibody and a chemiluminescent substrate.
On the technique in general: In an ELISA, binding on a coated surface is turned into a signal by an enzyme label.

A further test concerns the target T4, Cynomolgus Monkey SIRPγ (Macaca fascicularis).
T4 construct: extracellular domain; also called cyno SIRPγ extracellular domain, plate-coated
The test is described as above. The method, then: as §2

For a further test, the target named is T5, Human SIRPβ1.
T5 construct: also called human SIRPβ1 extracellular domain, plate-coated
T5 chain: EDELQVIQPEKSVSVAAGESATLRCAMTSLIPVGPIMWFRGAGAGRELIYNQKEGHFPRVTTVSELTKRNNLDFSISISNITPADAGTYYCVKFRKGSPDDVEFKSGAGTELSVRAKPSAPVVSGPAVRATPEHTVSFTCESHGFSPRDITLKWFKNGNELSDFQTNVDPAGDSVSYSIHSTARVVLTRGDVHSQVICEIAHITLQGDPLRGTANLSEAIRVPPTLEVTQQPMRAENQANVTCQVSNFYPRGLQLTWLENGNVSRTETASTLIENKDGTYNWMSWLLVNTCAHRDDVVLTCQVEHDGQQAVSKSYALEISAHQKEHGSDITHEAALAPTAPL
The test is described as above. The method, then: as §2

In test [3] the target is T6, human SIRPα V1 extracellular domain, monomeric (human, UniProt P78324 31-373).
T6 construct: also called hSIRPα V1
The test is described as above. As to the method: as §2

For a further test, the target named is T7, human SIRPγ-His monomer (human).
T7 construct: 'SIRP-His monomer protein' of the Octet assay; also called SIRP-His; not shown: His tag
Put plainly: BLI (Octet); antibody on anti-mouse IgG capture tip, SIRP-His monomer at 100, 33.3, 11.1 nM, 1:1 fit, mean KD. The method, then:
(§3) Select SIRP antibodies were tested for their affinities to human SIRPα, SIRPβ1, and SIRPγ using a biolayer interferometry (BLI) Octet system (Pall ForteBio). Each SIRP antibody with rat or mouse Fc was immobilized on a biosensor tip by an anti-mouse IgG capture (AMC). Antibodies with human Fc were digested with gingipain K enzyme to yield monomeric F(ab′), biotinylated, then coated onto streptavidin biosensors. […] The biosensors were then exposed to wash buffer to measure off-rate kinetics. The resulting kinetic data were analyzed and fitted using a 1:1 binding model with kₒₙ and kdis fitted separately at each SIRP-His protein concentration. KD affinities were calculated as kdis to kₒₙ ratio at each concentration of SIRP-His and averaged.

A further test addresses T8, human SIRPβ1-His monomer (human, UniProt O00241 30-371).
T8 construct: 'SIRP-His monomer protein' of the Octet assay; also called SIRP-His; not shown: His tag
The description is as above. The method, then:
as §3

Test [4] addresses T9, human SIRPα V1-His monomer (human, UniProt P78324 31-373, limits assumed).
T9 construct: 'SIRP-His monomer protein' of the Octet assay; also called SIRP-His; not shown: His tag
The test is described as above. The method, then:
as §3

Test [5] deals with T10, Human SIRPγ conjugated to an Fc region (human).
T10 construct: also called SIRPγ-Fc; SIRP-Fc; not shown: Fc region
Put plainly: BLI blocking; 200 nM antibody pre-incubated with 20 nM SIRPγ-Fc, binding to immobilised CD47-His (competitor), % of response of SIRPγ-Fc alone.

Test [6] addresses T1, Human SIRPγ CHO. Kind of test: flow cytometry, stably transfected CHO cells, antibody titrated, labelled anti-human IgG, MFI. As to the method: as §1
Background: In flow cytometry, cells or beads pass a laser one at a time.

The target in test [7] is T3, Human SIRPγ. Kind of test: ELISA, extracellular domain coated at 1 µg/mL, purified antibody titrated, anti-human IgG, chemiluminescence. The method, then: (§4) Select SIRP antibodies were purified by Protein G from hybridoma supernatants and analyzed in a titration via ELISA. Briefly, 1 μg/mL of extracellular domain SIRPα was coated onto high protein-binding plates and blocked. Purified antibodies were added in a titration to the coated plates. The antibodies were detected by an anti-rat IgG antibody and a chemiluminescent substrate.
FIGS. 3A-3C show binding curves of SIRP antibodies and two isotype controls with human Fc to human SIRPα V1, human SIRPβ1, human SIRPγ and cynomolgus monkey SIRPα by ELISA. […] Isotype control 1 was an unrelated human IgG1 antibody with irrelevant CDRs. Isotype control 2 was the same as isotype control 1 but contained the same amino acid substitutions in the Fc region as some of the selected SIRP antibodies for increased FcγR binding (referring to Table 11). DNA was transiently transfected into CHO cells for 7 days. Antibodies were purified by Protein A from cell supernatants and analyzed in a titration via ELISA as previously described in FIGS. 2A-2B using an anti-human IgG antibody as the detection antibody.

Test [8] concerns the target T11, human SIRPα V2 extracellular domain, monomeric (human, UniProt P78324 31-370).
T11 construct: also called hSIRPα V2
Put plainly: SPR (Biacore); antibody captured by anti-IgG on chip, monomeric SIRPα extracellular domain as analyte, 1:1 model. As to the method:
(§5) Selected antibodies were tested for their affinities to two hSIRPα variants (V1 and V2), and to cynomolgus monkey (herein referred to as “cyno”) SIRPα. The affinities of these SIRP antibodies were determined using surface plasmon resonance. The SIRP antibodies were flowed onto a chip and captured by an anti-mouse IgG or an anti-human IgG covalently coupled to the surface of the chip. A three-point titration of the extracellular binding domain of hSIRPα was performed per the manufacturer's recommended protocols.
(Surface plasmon resonance follows binding to a sensor surface in real time, without labels.)

In test [9] the target is T12, cynomolgus monkey SIRPα extracellular domain, monomeric (cynomolgus monkey, UniProt A0A2K5VYQ9 31-372).
T12 construct: extracellular domain; also called Cyno SIRPα
The test is described as above. The method, then: as §5

In test [10] the target is T6, human SIRPα V1 extracellular domain, …. The test is described as above. The method, then: as §5
Test [11] has the same target. Put plainly: ELISA, extracellular domain coated at 1 µg/mL, purified antibody titrated, anti-rat IgG, chemiluminescence. The method, then:
as §4

Test [12] addresses T12, cynomolgus monkey SIRPα extracellular …. Kind of test: ELISA, extracellular domain coated at 2 µg/mL, purified antibody titrated, anti-rat or anti-mouse IgG, chemiluminescence. As to the method:
as §2

B1: Antibody 8 (antibody, V domains shown)
VH: QVQLQQWGAGLLKPSETLSLTCAVYGGSFSGYYWSWIRQPPGKGLEWIGEINHSGSTNFNPSLKSRVTISVDTSKNQFSLKLRSVTAADTAVYYCSRVDSGSYPYYDGLDVWGQGTTVTVSS
VL: SSELTQPPSVSVSPGQTASITCSGDKLGDKYVYWYQQKPGQSPVLVIYHDDRRPAGIPERFAGSASGNTATLTISGTQAMDEADYYCQTWDSSTVVFGGGTKLTVL
notes: Human variable region, rat IgG2b Fc; from hybridoma
As a reminder, the EC50 (read off the curve) is the concentration needed to bring the measured effect to its halfway point. For orientation: Kd means the free concentration of one partner at which half of the binding sites on the other are occupied at equilibrium, for simple one-to-one binding. In the case of B1, the binding result in the test with Human SIRPγ CHO [1] and with Human SIRPβ1/DAP12 CHO was “binds” each time. The half-maximal effective concentration (EC50 (read off the curve)) in the test with Human SIRPγ [2] was around 0.02 µg/mL; in the test with Cynomolgus Monkey SIRPγ, around 0.03 µg/mL; with Human SIRPβ1, around 0.02 µg/mL; in [3], around 0.03 µg/mL. Besides, the Kd in the test with human SIRPγ-His monomer was determined as 50 nM; with human SIRPβ1-His monomer, 78.9 nM; in [4] it was 46.6 nM. Also, in [5], the “SIRPγ-CD47 Response (%)” value is -4.94%.

B2: Antibody 25 (antibody, V domains shown)
VH: EVQMLESGGGLVQPGGSLRLSCAASGFTFSSYAMSWVRQAPGKGLEWVSAISGSGSSTHYADSVKGRFTISRDNSKNTLYLQMNSLRAEDTAVYYCAAYSGSYYYYGMDVWGQGTTVTVSS
VL: EIVMTQSPATLSVSPGERATLSCRASQSVSRNLAWYQQKSGQAPRLLIYGASTRATGIPARFSGSGSGTEFTLTISSLQSEDFAGYYCQQYNNWPYTFGQGTKLEIK
notes: Variable regions of Antibody 13
In the case of B2, the concentration for a half-maximal effect (EC50 (read off the curve)) with Human SIRPγ CHO [6] was around 0.7 µg/mL; with Human SIRPγ [7], around 0.04 µg/mL. The Kd in [8] turned out to be 9.09 nM; in test [9], 12.6 nM; in test [10] it was 11.4 nM.

B3: Antibody 11 (antibody, V domains shown)
VH: EVQLVESGGGLVQPGGSLRLSCAASGFTFSSYWMHWVRQAPGKGLVWVSRIHNDGSRTSYADSVKGRFTISRDNAKNTLYLQMSSLRAEDTAVYYCTRDPPPYDILTGYPFDYWGQGTLVTVSS
VL: DIQMTQSPSSVSASVGDRVTITCRASQDISSWLAWFQQKPGKAPKLLIYGASSLQSGVPSRFSGSGSGTDFTLTISSLQPEDFATYYCQEANSFPYTFGQGTKLEIK
notes: as for B1
As to B3, the “EC50 (read off the curve)” value in test [11] is around 0.1 µg/mL. In addition, the binding result in the test with Human SIRPγ CHO [1], with Human SIRPβ1/DAP12 CHO, with Human SIRPγ [2] and with Human SIRPβ1 was “binds” each time. Also, the dissociation constant (Kd) came to 13.3 nM with human SIRPγ-His monomer, 61.9 nM with human SIRPβ1-His monomer and 3.74 nM in test [4]. For the same molecule, in test [5], the “SIRPγ-CD47 Response (%)” value is -3.8%.

B4: Antibody 15 (antibody, V domains shown)
VH: QIQLVQSGPELKKPGETVKISCKGSGYTFRNFGMNWVKQAPGMGLKWMVWIDTNTGEPTYAEEFKGRFAFSLETSASTAYLQINNLKNEDTATYFCARSRGNYFAMEYWGQGTSVTVSS
VL: DIKMTQSPSSMYASLGERVTVTCKASQDINRYLSWFQQKPGKSPKTLIYRANRLVDGVPSRFSGSGSGQDYSLTISSLEYEDMGFYYCLQYDEFPFTFGSGTKLEIK
notes: Mouse variable region, mouse IgG2a Fc; from hybridoma
B4: the “EC50 (read off the curve)” value with Human SIRPγ CHO [1] was around 2 µg/mL; in test [12], around 0.1 µg/mL; with Human SIRPγ [2] it was around 0.2 µg/mL. Moreover, the binding result with Human SIRPβ1/DAP12 CHO and with Human SIRPβ1 was “binds” throughout. Also, the values for the Kd (with human SIRPγ-His monomer; in [4]) were 54.4 nM and 0.244 nM, respectively. In addition, in [5], the “SIRPγ-CD47 Response (%)” value was 129%.
